For four molecules, stoichiometry N and Kd results are on record in publication PMC10725505, “Molecular forms of BMP15 and GDF9 in mammalian species that differ in litter size” (Scientific Reports, 2023).

For assay [1], the target named is recombinant pig BMP15 (pig). The assay can be described thus: cross-linking; recombinant HEK-293 conditioned media (positive control lanes); 2 mM BS3, room temperature, 30 min; reducing SDS-PAGE; Western blot with Mab61A (BMP15) or Mab37A (GDF9).
In assay [2] the target is native red deer GDF9 (red deer (endogenous in red deer oocytes)). The assay can be described thus: cross-linking; oocyte lysates of sheep, red deer and pig; 2 mM BS3, room temperature, 30 min, reducing SDS-PAGE, beside non-reducing and reducing lanes without cross-linker; Western blot with Mab61A or Mab37A.
The target in assay [3] is recombinant pig GDF9 (pig) (UniProt Q6GUA6). The experiment in a line: cross-linking; recombinant HEK-293 conditioned media (positive control lanes); 2 mM BS3, room temperature, 30 min; reducing SDS-PAGE; Western blot with Mab61A (BMP15) or Mab37A (GDF9).
For the next assay, the target named is T1, recombinant ovine GDF9 (sheep (ovine), UniProt O77681 319-453).
T1 construct: also called recovGDF9; sheep GDF9; source: 293H-secreted media, dialysed and concentrated (partially purified)
T1 sequence (looked up): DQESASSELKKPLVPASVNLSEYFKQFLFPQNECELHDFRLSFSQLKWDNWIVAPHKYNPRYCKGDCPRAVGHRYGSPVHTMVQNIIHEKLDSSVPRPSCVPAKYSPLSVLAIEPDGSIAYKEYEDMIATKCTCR
The assay can be described thus: SPR; ProteOn XPR36; biotinylated hBMPR2 captured (~200 RU) on a streptavidin-coated GLC chip; log2 serial dilutions of partially purified (dialysed, concentrated) 293H-secreted GDF9 or BMP15 as analytes; 25 °C, 100 µl/min; 10 mM HEPES, 500 mM NaCl, 3.4 mM EDTA, 0.005% Tween 20; association 120 s; analyte concentrations not known. The following applies: one partner purified.

For the molecule recombinant pig BMP15 (ligand), the stoichiometry N in assay [1] is 2.

Molecule native red deer GDF9 (natural protein) registered a stoichiometry N in assay [2] of 2.

Consider “recombinant pig GDF9 (from UniProt Q6GUA6 1-444) (ligand)”, for which the stoichiometry N in assay [3] turned out to be 2.

B1: recombinant human (h)BMPR2 ectodomain (receptor, UniProt Q13873 27-151, looked up)
chain: SQNQERLCAFKDPYQQDLGIGESRISHENGTILCSKGSTCYGLWEKSKGDINLVKQGCWSHIGDPQECHYEECVVTTTPPSIQNGTYRFCCCSTDLCNVNFTENFPPPDTTPLSPPHSFNRDETI
modifications: N-biotinylated using EZ-Link sulfo-NHS-LC-biotin (1:1.2 molar ratio)
notes: human BMPR2, extracellular domain, amino acids 27 to 151; captured on a streptavidin-coated sensor chip by its biotin; also called hBMPR2 ectodomain protein; Type 2 receptor; source: baculoviral infected Sf9 insect cells, purified
For B1, in the assay with recombinant ovine GDF9, the Kd was ~1 nM.
